The values that follow come from EP2605788B1.

Some results are limits rather than exact numbers.

Targets include CD22 (human) (UniProt P20273); CD74 (human) (UniProt P04233); CD20 (human) (UniProt P11836).
Holding throughout (assay): cell-based or functional assay

CD20 (human), sequence (P11836 whole entry): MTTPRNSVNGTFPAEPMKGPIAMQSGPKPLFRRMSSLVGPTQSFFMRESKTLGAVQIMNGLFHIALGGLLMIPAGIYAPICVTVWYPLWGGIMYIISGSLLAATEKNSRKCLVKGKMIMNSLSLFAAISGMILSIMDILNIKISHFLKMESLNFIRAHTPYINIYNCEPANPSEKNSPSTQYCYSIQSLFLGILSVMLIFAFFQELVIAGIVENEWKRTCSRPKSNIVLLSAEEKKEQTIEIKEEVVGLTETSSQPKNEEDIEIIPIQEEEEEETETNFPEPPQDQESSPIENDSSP
CD74 (human), sequence (P04233 whole entry): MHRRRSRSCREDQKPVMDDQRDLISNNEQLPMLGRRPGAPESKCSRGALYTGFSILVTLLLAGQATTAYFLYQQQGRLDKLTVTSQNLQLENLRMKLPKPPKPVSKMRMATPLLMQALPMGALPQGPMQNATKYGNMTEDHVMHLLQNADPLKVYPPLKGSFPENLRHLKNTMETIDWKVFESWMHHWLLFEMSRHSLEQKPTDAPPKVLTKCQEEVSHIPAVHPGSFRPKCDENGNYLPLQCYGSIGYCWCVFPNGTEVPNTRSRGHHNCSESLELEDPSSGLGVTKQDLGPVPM

On to 22-Rap, for which the in vitro cytotoxicity, NHL cell lines with CD22 (human) is above 1 nM.
In the test with CD74 (human), 74-(20)-(20) (bispecific antibody) displayed an EC50, MTS assay, CLL (WAC, MEC-1), ALL (REH-1, MN60) and MM (CAG, RPMI8226, KMS11, KMS12-BM, KMS12-PE) lines above 100 nM; a homotypic adhesion (%), JeKo-1, 10 nM, 2 h of 90%; a homotypic adhesion (%), JeKo-1, 10 nM, 24 h above 95%. Besides, in the test with CD20 (human), the homotypic adhesion (%), JeKo-1, 10 nM, 2 h was 90% and the homotypic adhesion (%), JeKo-1, 10 nM, 24 h is above 95%.
In the test with CD20 (human), 20-Rap showed an EC50, in vitro cytotoxicity, Daudi and Ramos of 0.1 nM; an EC50, in vitro cytotoxicity, Jeko-1 of 0.02 nM; a fold more potent than 22-Rap, in vitro cytotoxicity, Jeko-1 of 25 fold; an in vitro cytotoxicity, NHL cell lines above 1 nM.
In the test with CD74 (human), 20-(74)-(74) (bispecific antibody) returned an EC50, MTS assay, CLL (WAC, MEC-1), ALL (REH-1, MN60) and MM (CAG, RPMI8226, KMS11, KMS12-BM, KMS12-PE) lines above 100 nM; a homotypic adhesion (%), JeKo-1, 10 nM, 2 h of 90%; a homotypic adhesion (%), JeKo-1, 10 nM, 24 h above 95%. In the test with CD20 (human), this substance showed a homotypic adhesion (%), JeKo-1, 10 nM, 2 h of 90% and a homotypic adhesion (%), JeKo-1, 10 nM, 24 h above 95%.
